Assay results as given in the supplement of paper PMC9112550, “Optimization of the antimicrobial peptide Bac7 by deep mutational scanning” (BMC Biology, 2022).

system: Escherichia coli TOP10; test: shrunken log2 fold change of peptide-encoding DNA abundance (4.5 h post-induction vs induction); higher = less antimicrobial activity (less host growth inhibition); settings: time post-induction: 4.5 h; library: site-saturation at positions 5, 18, 19, 20
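Further: peptides expressed intracellularly from a pBAD plasmid library in pooled LB shake-flask culture, induced with 0.3% L-arabinose, DNA abundance read by NGS, three biological replicates, DESeq2 with apeglm shrinkage.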

| Sequence | shrunken log2 fold change |
| --- | --- |
| RRIRWRPPRLPRPRPRPPRTPRP | 0.663 |
| RRIRFRPPRLPRPRPRPDENPRP | -0.0759 |
| RRIRARPPRLPRPRPRPAFGPRP | 0.6 |
| RRIRNRPPRLPRPRPRPQDLPRP | -0.11 |
| RRIRTRPPRLPRPRPRPIGPPRP | 0.0411 |
| RRIRCRPPRLPRPRPRPISVPRP | 0.0666 |
| RRIRSRPPRLPRPRPRPENHPRP | -0.138 |
| RRIRCRPPRLPRPRPRPEKWPRP | -0.0207 |
| RRIRYRPPRLPRPRPRPNNMPRP | -0.633 |
| RRIRFRPPRLPRPRPRPLCFPRP | -0.211 |
| RRIRGRPPRLPRPRPRPGKIPRP | 1.93 |
| RRIRHRPPRLPRPRPRPPCPPRP | -0.0235 |
| RRIRFRPPRLPRPRPRPCKTPRP | 0.00592 |
| RRIRFRPPRLPRPRPRPEAKPRP | 0.0369 |
| RRIRTRPPRLPRPRPRPLNPPRP | -0.19 |
| RRIRTRPPRLPRPRPRPIDGPRP | 0.0685 |
| RRIRARPPRLPRPRPRPDRVPRP | -0.0545 |
| RRIRLRPPRLPRPRPRPVISPRP | -0.266 |
| RRIRMRPPRLPRPRPRPQPDPRP | 0.658 |
| RRIRNRPPRLPRPRPRPMTLPRP | -0.337 |
| RRIRTRPPRLPRPRPRPITDPRP | 0.177 |
| RRIRERPPRLPRPRPRPFQRPRP | -0.0653 |
| RRIRVRPPRLPRPRPRPPRMPRP | 0.167 |
| RRIRFRPPRLPRPRPRPQKDPRP | -0.376 |
| RRIRNRPPRLPRPRPRPMRDPRP | -0.00169 |

| Sequence | shrunken log2 fold change |
| --- | --- |
| RRIRYRPPRLPRPRPRPHMEPRP | -0.249 |
| RRIRSRPPRLPRPRPRPKAAPRP | 0.252 |
| RRIRNRPPRLPRPRPRPLMCPRP | 0.141 |
| RRIRHRPPRLPRPRPRPVQCPRP | -0.00186 |
| RRIRDRPPRLPRPRPRPDNNPRP | -0.0748 |
| RRIRYRPPRLPRPRPRPYFIPRP | -0.629 |
| RRIRRRPPRLPRPRPRPVWHPRP | 0.278 |
| RRIRDRPPRLPRPRPRPIKYPRP | -0.206 |
| RRIRPRPPRLPRPRPRPQMFPRP | 0.161 |
| RRIRERPPRLPRPRPRPDAEPRP | 0.36 |
| RRIRMRPPRLPRPRPRPWLVPRP | 0.0862 |
| RRIRPRPPRLPRPRPRPNMMPRP | -0.593 |
| RRIRPRPPRLPRPRPRPTCDPRP | 0.052 |
| RRIRMRPPRLPRPRPRPSMMPRP | 0.0163 |
| RRIRGRPPRLPRPRPRPDELPRP | 0.955 |
| RRIRSRPPRLPRPRPRPIGKPRP | 0.0386 |
| RRIRHRPPRLPRPRPRPISTPRP | -0.578 |
| RRIRWRPPRLPRPRPRPHWKPRP | -0.018 |
| RRIRPRPPRLPRPRPRPTPEPRP | 0.277 |
| RRIRLRPPRLPRPRPRPFPWPRP | -0.0836 |
| RRIRTRPPRLPRPRPRPARGPRP | 0.407 |
| RRIRCRPPRLPRPRPRPMSCPRP | -0.0327 |
| RRIRKRPPRLPRPRPRPNWHPRP | -0.0566 |
| RRIRDRPPRLPRPRPRPRGRPRP | 0.614 |
| RRIRTRPPRLPRPRPRPPHAPRP | 0.312 |

| Sequence | shrunken log2 fold change |
| --- | --- |
| RRIRTRPPRLPRPRPRPGCSPRP | 0.0133 |
| RRIRMRPPRLPRPRPRPHKGPRP | 0.034 |
| RRIRGRPPRLPRPRPRPCRAPRP | 0.495 |
| RRIRIRPPRLPRPRPRPRMPPRP | -0.0534 |
| RRIRNRPPRLPRPRPRPCCFPRP | -0.278 |
| RRIRSRPPRLPRPRPRPLYAPRP | -0.164 |
| RRIRIRPPRLPRPRPRPITFPRP | -1.1 |
| RRIRWRPPRLPRPRPRPLKPPRP | 0.0915 |
| RRIRRRPPRLPRPRPRPNQFPRP | 0.119 |
| RRIRNRPPRLPRPRPRPMNEPRP | 0.0961 |
| RRIRFRPPRLPRPRPRPVMAPRP | -0.271 |
| RRIRCRPPRLPRPRPRPIVSPRP | -0.506 |
| RRIRTRPPRLPRPRPRPCMVPRP | -0.576 |
| RRIRKRPPRLPRPRPRPCSYPRP | -0.0348 |
| RRIRMRPPRLPRPRPRPVVLPRP | 0.272 |
| RRIRTRPPRLPRPRPRPECDPRP | -0.134 |
| RRIRHRPPRLPRPRPRPWCSPRP | -0.348 |
| RRIRNRPPRLPRPRPRPKPFPRP | -0.104 |
| RRIRQRPPRLPRPRPRPDKTPRP | -0.00926 |
| RRIRSRPPRLPRPRPRPRTYPRP | -0.452 |
| RRIRWRPPRLPRPRPRPARAPRP | 0.563 |
| RRIRMRPPRLPRPRPRPGITPRP | 0.133 |
| RRIRARPPRLPRPRPRPGGTPRP | 0.41 |
| RRIRYRPPRLPRPRPRPHCDPRP | -0.0698 |
| RRIRARPPRLPRPRPRPWTTPRP | 0.0452 |

| Sequence | shrunken log2 fold change |
| --- | --- |
| RRIRQRPPRLPRPRPRPQSYPRP | 0.015 |
| RRIRRRPPRLPRPRPRPTADPRP | 0.808 |
| RRIRQRPPRLPRPRPRPNYLPRP | -0.134 |
| RRIRIRPPRLPRPRPRPRRKPRP | 0.0881 |
| RRIRQRPPRLPRPRPRPHMIPRP | -0.515 |
| RRIRGRPPRLPRPRPRPVPKPRP | 0.92 |
| RRIRQRPPRLPRPRPRPFTCPRP | -0.158 |
| RRIRKRPPRLPRPRPRPWPYPRP | -0.146 |
| RRIRQRPPRLPRPRPRPCIRPRP | -0.0303 |
| RRIRQRPPRLPRPRPRPFHWPRP | 0.0728 |
| RRIRPRPPRLPRPRPRPFNFPRP | -0.155 |
| RRIRYRPPRLPRPRPRPNGNPRP | -0.561 |
| RRIRYRPPRLPRPRPRPAIAPRP | 0.0565 |
| RRIRERPPRLPRPRPRPAVSPRP | 0.0433 |
| RRIRMRPPRLPRPRPRPEHCPRP | 0.429 |
| RRIRPRPPRLPRPRPRPCKSPRP | -0.0854 |
| RRIRQRPPRLPRPRPRPLGIPRP | -0.381 |
| RRIRLRPPRLPRPRPRPPSEPRP | 0.321 |
| RRIRTRPPRLPRPRPRPKARPRP | 0.0672 |
| RRIRDRPPRLPRPRPRPAWIPRP | 0.0906 |
| RRIRTRPPRLPRPRPRPEQMPRP | 0.233 |
| RRIRVRPPRLPRPRPRPGRVPRP | 0.405 |
| RRIRSRPPRLPRPRPRPGGWPRP | 0.705 |
| RRIRIRPPRLPRPRPRPSNFPRP | -0.335 |
| RRIRQRPPRLPRPRPRPFLKPRP | -0.939 |

| Sequence | shrunken log2 fold change |
| --- | --- |
| RRIRRRPPRLPRPRPRPWIPPRP | -0.129 |
| RRIRWRPPRLPRPRPRPKYIPRP | -0.0755 |
| RRIRGRPPRLPRPRPRPCKEPRP | -0.0407 |
| RRIRIRPPRLPRPRPRPYGKPRP | -0.108 |
| RRIRERPPRLPRPRPRPWVRPRP | -0.122 |
| RRIRQRPPRLPRPRPRPYIFPRP | -0.547 |
| RRIRDRPPRLPRPRPRPPGAPRP | 0.564 |
| RRIRHRPPRLPRPRPRPAGNPRP | 0.023 |
| RRIRARPPRLPRPRPRPWALPRP | 0.172 |
| RRIRTRPPRLPRPRPRPPVTPRP | 0.361 |
| RRIRRRPPRLPRPRPRPCSLPRP | 0.00239 |
| RRIRARPPRLPRPRPRPYQKPRP | -0.0277 |
| RRIRARPPRLPRPRPRPHGLPRP | 0.268 |
| RRIRFRPPRLPRPRPRPLTIPRP | -0.219 |
| RRIRARPPRLPRPRPRPAQIPRP | -0.0241 |
| RRIRERPPRLPRPRPRPYDNPRP | 0.033 |
| RRIRYRPPRLPRPRPRPVYVPRP | -0.37 |
| RRIRYRPPRLPRPRPRPEKCPRP | -0.26 |
| RRIRSRPPRLPRPRPRPNVIPRP | 0.0185 |
| RRIRKRPPRLPRPRPRPITAPRP | 0.235 |
| RRIRNRPPRLPRPRPRPNEQPRP | -0.0324 |
| RRIRCRPPRLPRPRPRPCSNPRP | -0.274 |
| RRIRPRPPRLPRPRPRPEELPRP | 0.0725 |
| RRIRFRPPRLPRPRPRPWGRPRP | 0.0219 |
| RRIRPRPPRLPRPRPRPNITPRP | -0.293 |

| Sequence | shrunken log2 fold change |
| --- | --- |
| RRIRVRPPRLPRPRPRPIKKPRP | -0.015 |
| RRIRARPPRLPRPRPRPHWRPRP | 0.319 |
| RRIRQRPPRLPRPRPRPTFSPRP | -0.0427 |
| RRIRTRPPRLPRPRPRPMYQPRP | -0.416 |
| RRIRPRPPRLPRPRPRPAVLPRP | 0.163 |
| RRIRKRPPRLPRPRPRPLPAPRP | 1.13 |
| RRIRKRPPRLPRPRPRPDAGPRP | -0.034 |
| RRIRNRPPRLPRPRPRPGFYPRP | 0.00223 |
| RRIRHRPPRLPRPRPRPSEDPRP | -0.00172 |
| RRIRVRPPRLPRPRPRPYCCPRP | -0.252 |
| RRIRPRPPRLPRPRPRPYRYPRP | 0.101 |
| RRIRFRPPRLPRPRPRPLKFPRP | -0.544 |
| RRIRERPPRLPRPRPRPLLYPRP | -0.309 |
| RRIRARPPRLPRPRPRPNDDPRP | 0.54 |
| RRIRNRPPRLPRPRPRPSFDPRP | -0.427 |
| RRIRHRPPRLPRPRPRPSMFPRP | -0.163 |
| RRIRMRPPRLPRPRPRPWDDPRP | 0.533 |
| RRIRPRPPRLPRPRPRPRTEPRP | 0.306 |
| RRIRERPPRLPRPRPRPQHFPRP | 0.131 |
| RRIRMRPPRLPRPRPRPPWMPRP | 0.537 |
| RRIRIRPPRLPRPRPRPATQPRP | 0.129 |
| RRIRWRPPRLPRPRPRPAIGPRP | 0.0325 |
| RRIRMRPPRLPRPRPRPLFDPRP | 0.201 |
| RRIRDRPPRLPRPRPRPNERPRP | 0.141 |
| RRIRYRPPRLPRPRPRPYFDPRP | -0.27 |
